Reference: patent US20220242973A1 (Molecular Partners, published 2022)

Experiments:
[1] = target: T1, Human FAP expressed on the cell surface (WI38, CHO-FAP1.9, U87MG cells) (human, UniProt Q12884 1-760); test: FACS on WI38 cells (FAP on the cell surface), His-tag detected with Penta-His AF647 conjugate, median fluorescence intensity
T1 construct: whole, on cells; Endogenous on WI38 and U87MG cells; from a human FAP cDNA (OriGene) in CHO-FAP1.9 cells; also called hFAP; FAP+ cells
T1 sequence (looked up): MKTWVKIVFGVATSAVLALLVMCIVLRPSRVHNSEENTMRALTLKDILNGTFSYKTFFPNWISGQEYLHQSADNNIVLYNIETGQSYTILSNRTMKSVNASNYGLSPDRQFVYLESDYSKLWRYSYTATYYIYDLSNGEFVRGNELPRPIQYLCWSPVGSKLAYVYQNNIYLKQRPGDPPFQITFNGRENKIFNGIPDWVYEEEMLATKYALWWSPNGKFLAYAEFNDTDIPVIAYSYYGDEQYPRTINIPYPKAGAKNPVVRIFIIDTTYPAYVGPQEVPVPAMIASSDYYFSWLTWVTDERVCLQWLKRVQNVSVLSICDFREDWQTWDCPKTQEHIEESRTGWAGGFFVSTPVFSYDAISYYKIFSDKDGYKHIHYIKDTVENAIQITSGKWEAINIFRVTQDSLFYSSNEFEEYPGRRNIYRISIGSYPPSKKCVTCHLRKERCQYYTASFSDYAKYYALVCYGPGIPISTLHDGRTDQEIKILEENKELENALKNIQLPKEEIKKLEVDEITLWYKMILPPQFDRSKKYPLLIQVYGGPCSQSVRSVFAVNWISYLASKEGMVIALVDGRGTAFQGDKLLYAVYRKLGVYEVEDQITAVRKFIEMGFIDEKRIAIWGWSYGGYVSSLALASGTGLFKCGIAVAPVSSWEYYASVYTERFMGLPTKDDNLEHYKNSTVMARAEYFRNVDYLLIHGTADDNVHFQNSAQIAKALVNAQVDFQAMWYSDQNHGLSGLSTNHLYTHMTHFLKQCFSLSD
Method: (§1) In order to determine whether the fusion of a biologically active molecule to a FAP-specific ankyrin repeat domain affects the ability of the molecule to specifically recognize and bind to FAP expressed on the surface of cells, the binding of selected ankyrin repeat fusion proteins to FAP-expressing cells was tested. U87 MG cells and WI38 cells are known to express FAP on the cell surface and they were chosen as representative cells for these experiments. FAP expression on the U87 MG and WI38 cells was confirmed by FACS analysis (data not shown).
(§2) Using multi-well plates, 40,000 cells (either U87MG or WI38) were added per well in 50 μl of PBS. 50 μl of appropriate dilutions (2× dilution steps) of ankyrin repeat fusion protein (DARPin® protein #40 or DARPin® protein #41) was then added to the cells and incubated for 30 minutes on ice. After the ankyrin repeat fusion protein-binding reaction, cells were washed twice with PBS. Direct immunofluorescent detection of the His-tagged ankyrin repeat fusion proteins using Penta-His AF647 conjugate (QIAgen) and determination of live cells using LIVE/DEAD™ Fixable Green Dead Cell Stain Kit (ThermoFisher) were then performed together in one step. […] Acquisition and FACS analysis, including the determination of median fluorescence intensity (MFI), were done within 5 days after staining using an AttuneNxT instrument. […]

[2] = target: T1, Human FAP expressed on the cell surface …; test: FACS on U87MG cells (FAP on the cell surface), His-tag detected with Penta-His AF647 conjugate, median fluorescence intensity
Method: as §1, §2

B1: DARPin® protein #40 (designed binder)
chain: MRGSHHHHHHGSDLGKKLLEAARAGQDDEVRELLKAGADVNAKDYFSHTPLHLAARNGHLKIVEVLLKAGADVNAKDFAGKTPLHLAANEGHLEIVEVLLKAGADVNAQDIFGKTPADIAADAGHEDIAEVLQKAAGSPTPTPTTPTPTPTTPTPTPTGSDLGKKLLEAARAGQDDEVRILLAAGADVNAKDVLGWTPLHLAAFEGHLEIVEVLLKAGADVNAKDKKGWTPLQLAARTGHLEIVEVLLKAGADVNAKDHIGATPLHLAAWQGHPEIVEVLLKAGADVNAQDKSGKTPADLAADAGHEDIAEVLQKAA
notes: Fusion of a serum albumin-specific and a FAP-specific ankyrin repeat domain
[1]
  EC50 (read off the curve): ~2 nM
[2]
  EC50 (read off the curve): ~2 nM
